From US20040067882A1 (published 2004) come the findings set out here.

The data set concerns the molecule itself. The experiment in a line: self-association, non-reducing western blot. (In general: A western blot detects proteins with antibodies after separation by electrophoresis.)

B1: CG57094-02 purified protein (angiopoietin-related protein, ARP, mature region; CHO-K1 stable cell expression, plasmid 1614) (ligand)
chain: GPVQSKSPRFASWDEMNVLAHGLLQLGQGLREHAERTRSQLSALERRLSACGSACQGTEGSTDLPLAPESRVDPEVLHSLQTQLKAQNSRIQQLFHKVAQQQRHLEKQHLRIQHLQSQFGLLDHKHLDHEVAKPARRKRLPEMAQPVDPAHNVSRLHRLPRDCQELFQVGERQSGLFEIQPQGSPPFLVNCKMTSDGGWTVIQRRHDGSVDFNRPWEAYKAGFGDPHGEFWLGLEKVHSITGDRNSRLAVQLRDWDGNAELLQFSVHLGGEDTAYSLQLTAPVAGQLGATTVPPSGLSVPFSTWDQDHDLRRDKNCAKSLSGGWWFGTCSHSNLNGQYFRSIPQQRQKLKKGIFWKTWRGRYYPLQATTMLIQPMAAEAAS
notes: also called NOV25s; CG57094 variant 02; not shown: C-terminal V5 and His tags from the pEE14.4 Sec vector
On to B1, for which the binding result is “binds”.
